Results: patent US20230127047A1, “SELECTIVE GIP RECEPTOR AGONISTS COMPRISING A CHELATING MOIETY FOR IMAGING AND THERAPY PURPOSES” (ANTAROS MEDICAL AB, priority 2020, published 2023)
Read-outs that look alike come from different tables or passages of the source. Where no end group is shown, it is not given here. [ ]: non-standard residue; d: D form. The star is where a group is joined. DOTA = O=C(O)CN1CCN(CC(=O)O)CCN(CC(=O)*)CCN(CC(=O)O)CC1; Aib = CC(C)(N)C(=O)O

Tests used:
[1] = biological target: T1, glucagon receptor (hGCGR) (Homo sapiens, UniProt P47871); test: cAMP response (HTRF) in PSC-HEK-293 cells expressing human glucagon receptor; assay type: cell-based
T1 construct: expressed in transfected cells
T1 sequence (P47871 26-477): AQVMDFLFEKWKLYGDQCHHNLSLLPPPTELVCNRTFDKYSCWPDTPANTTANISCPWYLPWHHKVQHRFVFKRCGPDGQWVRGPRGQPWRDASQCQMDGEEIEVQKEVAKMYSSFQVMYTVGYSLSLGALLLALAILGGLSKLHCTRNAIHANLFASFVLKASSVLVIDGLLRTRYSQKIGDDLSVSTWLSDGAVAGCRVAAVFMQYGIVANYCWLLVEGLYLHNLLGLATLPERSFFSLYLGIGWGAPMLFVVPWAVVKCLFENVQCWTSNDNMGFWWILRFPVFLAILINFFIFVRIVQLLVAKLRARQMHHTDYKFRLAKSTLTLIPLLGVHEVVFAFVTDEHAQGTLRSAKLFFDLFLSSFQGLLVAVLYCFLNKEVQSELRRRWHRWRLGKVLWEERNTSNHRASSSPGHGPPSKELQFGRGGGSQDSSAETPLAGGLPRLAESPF
Description: (§1) Each vial contained 1.8 ml cells. The vials were slowly frozen to −80° C. in isopropanol, and then transferred in liquid nitrogen for storage.
(§2) Prior to their use, frozen cells were thawed quickly at 37° C. and washed (5 min at 900 rpm) with 20 ml cell buffer (lx HBSS; 20 mM HEPES, with 0.1% BSA).
(§3) For measurement of cAMP generation, 5 μl cells (final 5000 cells/well) and 5 μl of test compound were added to a 384-well plate, followed by incubation for 30 min at room temperature.
(§4) The cAMP generated was determined using a kit from Cisbio Corp. based on HTRF (Homogenous Time Resolved Fluorescence). The cAMP assay was performed according to manufacturer's instructions (Cisbio).
(§5) cAMP content of cells was determined using a kit from Cisbio Corp. (cat. no. 62AM4PEC) based on HTRF (Homogenous Time Resolved Fluorescence). […] Medium was then removed and cells washed with PBS lacking calcium and magnesium, followed by proteinase treatment with accutase (Sigma-Aldrich cat. no. A6964). Detached cells were washed and resuspended in assay buffer (1×HBSS; 20 mM HEPES, 0.1% BSA, 2 mM IBMX) and cellular density determined. They were then diluted to 400000 cells/ml and 25 μl-aliquots dispensed into the wells of 96-well plates. For measurement, 25 μl of test compound in assay buffer was added to the wells, followed by incubation for 30 minutes at room temperature.

[2] = biological target: T2, human GIP receptor (hGIPR) (Homo sapiens, UniProt P48546); test: cAMP response (HTRF) in PSC-HEK-293 cells expressing human GIP receptor; assay type: cell-based; conditions: from EC50 values of Table 5
T2 sequence (P48546 22-466): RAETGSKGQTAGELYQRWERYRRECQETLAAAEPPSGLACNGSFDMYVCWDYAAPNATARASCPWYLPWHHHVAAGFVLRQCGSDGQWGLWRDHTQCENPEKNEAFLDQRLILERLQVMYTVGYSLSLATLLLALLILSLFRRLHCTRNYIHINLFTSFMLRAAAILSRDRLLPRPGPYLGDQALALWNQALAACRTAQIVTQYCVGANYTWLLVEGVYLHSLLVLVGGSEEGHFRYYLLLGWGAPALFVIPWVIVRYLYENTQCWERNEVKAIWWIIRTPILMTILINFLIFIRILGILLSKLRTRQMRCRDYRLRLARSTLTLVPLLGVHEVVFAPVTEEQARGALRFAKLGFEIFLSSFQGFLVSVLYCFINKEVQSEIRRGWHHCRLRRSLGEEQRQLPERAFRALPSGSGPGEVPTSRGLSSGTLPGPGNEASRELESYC
Description: as §1, §2, §3, §4, §5

[3] = Plasma stability testing (radio-HPLC) in NHP plasma; assay type: in vitro ADME, cynomolgus monkey; conditions: for Intact peptide (%): NHP plasma, 37° C.
human GIP receptor = biological target: T3, human GIP receptor (human, UniProt P48546 22-466); test: cell-based or functional assay
T3 sequence (looked up): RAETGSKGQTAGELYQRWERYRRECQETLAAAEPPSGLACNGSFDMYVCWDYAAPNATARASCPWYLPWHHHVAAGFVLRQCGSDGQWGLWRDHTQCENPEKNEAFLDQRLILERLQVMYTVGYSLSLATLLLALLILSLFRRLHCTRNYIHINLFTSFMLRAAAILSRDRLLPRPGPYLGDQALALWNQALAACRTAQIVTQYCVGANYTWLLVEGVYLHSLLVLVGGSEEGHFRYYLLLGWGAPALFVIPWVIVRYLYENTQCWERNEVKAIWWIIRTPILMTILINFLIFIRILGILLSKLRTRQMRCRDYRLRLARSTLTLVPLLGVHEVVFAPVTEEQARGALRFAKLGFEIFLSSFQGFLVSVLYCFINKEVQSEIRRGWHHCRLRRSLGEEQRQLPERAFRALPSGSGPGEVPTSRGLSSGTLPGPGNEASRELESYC

human glucagon receptor = human glucagon receptor (human, UniProt P47871 26-477); test: cell-based or functional assay
Sequence of human glucagon receptor (P47871 26-477): as the sequence (P47871 26-477) above

human GLP-1 receptor = human GLP-1 receptor (human, UniProt P43220 24-463); test: cell-based or functional assay

## CC[C@H](C)[C@H](NC(=O)[C@H](CO)NC(=O)[C@H](Cc1ccc(O)cc1)NC(=O)[C@H](CC(=O)O)NC(=O)[C@H](CO)NC(=O)[C@@H](NC(=O)[C@H](Cc1ccccc1)NC(=O)[C@@H](NC(=O)CNC(=O)[C@H](CCC(=O)O)NC(=O)[C@H](C)NC(=O)[C@@H](N)Cc1ccc(O)cc1)[C@@H](C)O)[C@@H](C)CC)C(=O)N[C@@H](C)C(=O)N[C@@H](CCSC)C(=O)N[C@@H](CC(=O)O)C(=O)N[C@@H](CCCCN)C(=O)N[C@H](C(=O)N[C@@H](Cc1c[nH]cn1)C(=O)N[C@@H](CCC(N)=O)C(=O)N[C@@H](CCC(N)=O)C(=O)N[C@@H](CC(=O)O)C(=O)N[C@@H](Cc1ccccc1)C(=O)N[C@H](C(=O)N[C@@H](CC(N)=O)C(=O)N[C@@H](Cc1c[nH]c2ccccc12)C(=O)N[C@@H](CC(C)C)C(=O)N[C@@H](CC(C)C)C(=O)N[C@@H](C)C(=O)N[C@@H](CCC(N)=O)C(=O)N[C@@H](CCCCN)C(=O)NCC(=O)N[C@@H](CCCCN)C(=O)N[C@@H](CCCCN)C(=O)N[C@@H](CC(N)=O)C(=O)N[C@@H](CC(=O)O)C(=O)N[C@@H](Cc1c[nH]c2ccccc12)C(=O)N[C@@H](CCCCN)C(=O)N[C@@H](Cc1c[nH]cn1)C(=O)N[C@@H](CC(N)=O)C(=O)N[C@H](C(=O)N[C@H](C(=O)N[C@@H](CCC(N)=O)C(=O)O)[C@@H](C)O)[C@@H](C)CC)C(C)C)[C@@H](C)CC [SEQ ID NO: 1, YAEGTFISDYSIAMDKIHQQDFVNWLLAQKGKKNDWKHNITQ-OH]
[1]
  EC50: > 10 nM
[1]; read-out: EC50 hGCGR, 384-well format
  EC50: > 10 nM

## SEQ ID NOs: 3 (Y[Aib]EGTFISDLSIALDRIHQEEFIEWLLAGGK(DOTA)-NH2)
[2]
  potency (ability to activate the human GIP receptor) compared to native GIP or GIP(1-30): lower potency

## Y-Aib-EGTFISDLSIALDRIHQEEFIEWLLAGGK(DOTA(Ga))-NH2 (Y[Aib]EGTFISDLSIALDRIHQEEFIEWLLAGGK(DOTA)-NH2; also: Ga (68Ga) complexed in DOTA on Lys31) [SEQ ID NO: 4]
[2]
  potency (ability to activate the human GIP receptor) compared to native GIP or GIP(1-30): lower potency
[3]; 0 min
  Intact peptide (%): 99.5%
[3]; 15 min
  Intact peptide (%): 98.65%
[3]; 45 min
  Intact peptide (%): 96.31%
[3]; 90 min
  Intact peptide (%): 92.98%
[3]; plasma from NHP, after 90 minutes incubation
  radioactive signal arising from intact peptide: > 92%

## hGlucagon (from UniProt P01275 53-81) (ligand)
Human GIP receptor
  EC50 hGIP R, cAMP formation (HTRF), 96-well format: > 10000 pM
  EC50 hGIP R, cAMP formation (HTRF), 384-well format: > 10 nM

## YAEGTFISDYSIAMDKIHQQDFVNWLLAQK-NH2 (ligand) [GIP(1-30) amide, SEQ ID NO: 2]
Human glucagon receptor
  EC50 hGCGR, cAMP formation (HTRF), 96-well format: > 10 nM
Human GLP-1 receptor
  EC50 hGLP-1 R, cAMP formation (HTRF), 96-well format: > 10 nM

## Y[Aib]EGTFISDLSIALDRIHQEEFIEWLLAGGK(DOTA)-NH2 [SEQ ID NO: 3 (GIP(1-30) analog with K(DOTA) at position 31, unloaded)]
Human glucagon receptor
  EC50 hGCGR, cAMP formation (HTRF), 96-well format: > 10 nM
Human GLP-1 receptor
  EC50 hGLP-1 R, cAMP formation (HTRF), 96-well format: > 10 nM
Human GIP receptor
  EC50 hGIP R, cAMP formation (HTRF), 96-well format: 1.13 pM

## YAEGTFISDYSIAMDKIHQQDFVNWLLAQKGKKNDWKHNITQ-OH (ligand) [GIP (glucose-dependent insulinotropic polypeptide), SEQ ID NO: 1]
Human glucagon receptor
  EC50 hGCGR, cAMP formation (HTRF), 96-well format: > 10 nM
  EC50 hGCGR, cAMP formation (HTRF), 384-well format: > 10 nM
